Results taken from paper PMC12207370, “Macrocyclic Peptide Probes for Immunomodulatory Protein CD59: Potent Modulators of Bacterial Toxin Activity and Antibody‐Dependent Cytotoxicity” (Angewandte Chemie (International Ed. in English), 2025).

Biological target: T1, biotinylated CD59 (Homo sapiens, UniProt P13987)
T1 construct: Recombinant soluble human CD59 with an additional C-terminal cysteine residue
T1 sequence (P13987 26-102 limits assumed): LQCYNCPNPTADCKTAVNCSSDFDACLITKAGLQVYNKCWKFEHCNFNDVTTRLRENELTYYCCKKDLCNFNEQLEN
Assay: mRNA-display cyclic peptide screen against CD59-biotin, NGS abundance after 6th selection round
Conditions: for Percentage Seq I: counts normalised by total counts of sample Seq I; for Percentage Seq I / Percentage Seq II: percentage of the pool; for Percentage Seq I / Percentage Seq II / Percentage Average / Percentage of the pool, averaged across the two sequencing samples / Percentage of the pool, Seq I / Percentage of the pool, Seq II: sheet R6; for Percentage Seq II: counts normalised by total counts of sample Seq II; for Percentage Average: percentage of the pool averaged across the two sequencing samples; for Counts Seq I / Counts Seq II: raw NGS counts of peptide sequence; for Counts Seq I: sequencing sample Seq I; for Counts Seq I / Counts Seq II / Counts (raw counts for peptide sequence), Seq I / Counts (raw counts for peptide sequence), Seq II: sheet R6 (6th selection round); for Counts Seq II: sequencing sample Seq II; for Counts (raw counts for peptide sequence), Seq I: NGS sample Seq I; for Counts (raw counts for peptide sequence), Seq II: NGS sample Seq II; for Percentage of the pool, averaged across the two sequencing samples: average of Seq I and Seq II; for Percentage of the pool, Seq I: counts normalised by total counts of NGS sample Seq I; for Percentage of the pool, Seq II: counts normalised by total counts of NGS sample Seq II
Method in brief: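 Peptide–mRNA fusions were made by in vitro translation with a customised PURE express kit. The kit lacked release factor 1 and methionine and was supplemented with […] initiator tRNA carrying N-chloroacetyl-d-tyrosine. Thioether macrocycles were formed, then enriched and amplified over iterative rounds on CD59-biotin immobilised on streptavidin beads. NGS read counts per sequence were recorded after the 6th selection round.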

Row | Sequence | Percentage Seq I [%] | Percentage Seq II [%] | Percentage Average [%] | Counts Seq I | Counts Seq II | Counts (raw counts for peptide sequence), Seq I | Counts (raw counts for peptide sequence), Seq II | Percentage of the pool, averaged across the two sequencing samples [%] | Percentage of the pool, Seq I [%] | Percentage of the pool, Seq II [%]
1 | IARGDRNHQFY | 0.296 | 0.251 | 0.273 | 1296 | 108 | – | – | – | – | –
2 | FITGNRDHTRG | 0.018 | 0.026 | 0.022 | 78 | 11 | – | – | – | – | –
3 | SSFREYNHLPCT | 0.598 | 0.694 | 0.646 | 2617 | 299 | – | – | – | – | –
4 | VLCHRWHVGSHR | – | – | – | – | – | 54 | 7 | 0.014 | 0.012 | 0.016
5 | SSWAQLPCKR | 0.039 | 0.030 | 0.035 | 170 | 13 | – | – | – | – | –
6 | LVTGNRDHTRG | 0.023 | 0.030 | 0.027 | 100 | 13 | – | – | – | – | –
7 | FVRGDLYSVLG | 4.958 | 4.911 | 4.934 | 21693 | 2116 | – | – | – | – | –
8 | TILGNKHYVRG | 0.140 | 0.160 | 0.150 | 614 | 69 | – | – | – | – | –
9 | HAFGSRDITYY | 0.246 | 0.272 | 0.259 | 1078 | 117 | – | – | – | – | –
10 | SWTWGNRTSVRG | – | – | – | – | – | 36 | 7 | 0.012 | 0.008 | 0.016
11 | LCYVKGSKNFT | 0.088 | 0.095 | 0.092 | 385 | 41 | – | – | – | – | –
12 | CFAGRLTIDAA | – | – | – | – | – | 78 | 1 | 0.010 | 0.018 | 0.00232
13 | SAWGNRLIQYY | – | – | – | – | – | 80 | 5 | 0.015 | 0.018 | 0.012
14 | WTRGSKDYTRG | 0.168 | 0.167 | 0.168 | 737 | 72 | – | – | – | – | –
15 | CFRSRAVSNGT | – | – | – | – | – | 57 | 8 | 0.016 | 0.013 | 0.019
16 | FVRGDLYSVFG | 0.023 | 0.026 | 0.024 | 102 | 11 | – | – | – | – | –
17 | WILGSRWWTQS | 0.921 | 0.903 | 0.912 | 4031 | 389 | – | – | – | – | –

Row | Sequence | Percentage Seq I [%] | Percentage Seq II [%] | Percentage Average [%] | Counts Seq I | Counts Seq II | Counts (raw counts for peptide sequence), Seq I | Counts (raw counts for peptide sequence), Seq II | Percentage of the pool, averaged across the two sequencing samples [%] | Percentage of the pool, Seq I [%] | Percentage of the pool, Seq II [%]
18 | SVGGSRSWTRG | 0.129 | 0.146 | 0.138 | 566 | 63 | – | – | – | – | –
19 | QWNRWYGIDER | 0.021 | 0.023 | 0.022 | 94 | 10 | – | – | – | – | –
20 | GRLNECHAIWP | 0.112 | 0.104 | 0.108 | 488 | 45 | – | – | – | – | –
21 | HVYGNRSFTRG | – | – | – | – | – | 97 | 5 | 0.017 | 0.022 | 0.012
22 | YIRGTQDTFLF | – | – | – | – | – | 46 | 7 | 0.013 | 0.011 | 0.016
23 | CFSPRVTEHST | – | – | – | – | – | 62 | 8 | 0.016 | 0.014 | 0.019
24 | YLSGSSNFTRG | 0.042 | 0.044 | 0.043 | 184 | 19 | – | – | – | – | –
25 | RCWVRGSRNYT | – | – | – | – | – | 45 | 4 | 0.010 | 0.010 | 0.009
26 | FIRGNSTSVLY | – | – | – | – | – | 58 | 8 | 0.016 | 0.013 | 0.019
27 | CSSLRARGWI | – | – | – | – | – | 75 | 3 | 0.012 | 0.017 | 0.007
28 | HSYGSSQIAYH | – | – | – | – | – | 74 | 8 | 0.018 | 0.017 | 0.019
29 | YAFGSRDITYY | 0.018 | 0.023 | 0.021 | 78 | 10 | – | – | – | – | –
30 | CYGGRTFIYAWL | – | – | – | – | – | 35 | 8 | 0.013 | 0.008 | 0.019
31 | CFSWRLGPAEK | 0.020 | 0.028 | 0.024 | 87 | 12 | – | – | – | – | –
32 | VARGDWNHQFY | – | – | – | – | – | 40 | 7 | 0.013 | 0.009 | 0.016
33 | VWGNRWTRIYW | 0.037 | 0.035 | 0.036 | 161 | 15 | – | – | – | – | –
34 | HCRVRGSRNYT | – | – | – | – | – | 38 | 6 | 0.011 | 0.009 | 0.014
